Source: article PMC11079166

Tests used:
[1] = molecular target: complement component C1r (human)
[2] = molecular target: CihC of B. recurrentis A17 (aa 20-356) (Borrelia recurrentis A17); assay: ELISA; CihC/FbpC orthologs (5 µg/ml) immobilised, increasing plasminogen (0 to 1.5 µM); apparent dissociation constant by non-linear regression, one-site specific binding model
[3] = molecular target: CihC/FbpC of B. hermsii FRO (aa 21-374) (Borrelia hermsii FRO); assay: as above
[4] = molecular target: CihC/FbpC ortholog of B. parkeri (aa 25-349) (Borrelia parkeri); assay: as above
[5] = molecular target: CihC/FbpC ortholog of B. turicatae (aa 21-363) (Borrelia turicatae); assay: as above

Molecule	IC50 of inhibition of the classical pathway (MAC formation, anti-C5b-9 ELISA on IgM; NHS pre-incubated with 0.001 to 4 µM protein) [1] [nM]	further results
CihC-C of B. recurrentis (aa 195-356) (domain or fragment)	272	
human glu-plasminogen (natural protein)		Kd [2]: 93.1 nM; Kd [3]: 24.2 nM; Kd [4]: 62.7 nM; Kd [5]: 284 nM
CihC/FbpC ortholog of B. turicatae (aa 21-363) (natural protein)	95	
CihC/FbpC ortholog of B. parkeri (aa 25-349) (natural protein)	63	
CihC/FbpC of B. hermsii FRO (aa 21-374) (natural protein)	56	
CihC of B. recurrentis A17 (aa 20-356) (natural protein)	62	
C-terminal fragment of BBK32 of B. burgdorferi B31 (domain or fragment) SNRYQSYLEGVKYNVDSAIQTITKIYNTYTLFSTKLTQMYSTRLDNFAKAKAKEEAAKFTKEDLEKNFKTLLNYIQVSVKTAANFVYINDTHAKRKLENIEAEIKTLIAKIKEQSNLYEAYKAIVTSILLMRDSLKEVQGIID	75	
